From patent US20110020379A1
Positions of bridges follow the written chain, without caps; N, C: chain ends. No end group written: not given here.

How the values were obtained:
[1] = target: bovine serum albumin (bovine) (UniProt P02769); test: phage ELISA, 10^8 phagemid per well, BSA-only wells
[2] = target: bovine serum albumin (bovine) (UniProt P02769); test: phage ELISA, 10^9 phagemid per well, BSA-only wells
[3] = target: bovine serum albumin (bovine) (UniProt P02769); test: phage ELISA, 10^10 phagemid per well, BSA-only wells
[4] = target: unrelated control antibody; test: phage ELISA, 10^8 phagemid per well, wells coated with control mAb
[5] = target: unrelated control antibody; test: phage ELISA, 10^9 phagemid per well, wells coated with control mAb
[6] = target: unrelated control antibody; test: phage ELISA, 10^10 phagemid per well, wells coated with control mAb

Chain of bovine serum albumin (bovine) (P02769 25-607 limits assumed): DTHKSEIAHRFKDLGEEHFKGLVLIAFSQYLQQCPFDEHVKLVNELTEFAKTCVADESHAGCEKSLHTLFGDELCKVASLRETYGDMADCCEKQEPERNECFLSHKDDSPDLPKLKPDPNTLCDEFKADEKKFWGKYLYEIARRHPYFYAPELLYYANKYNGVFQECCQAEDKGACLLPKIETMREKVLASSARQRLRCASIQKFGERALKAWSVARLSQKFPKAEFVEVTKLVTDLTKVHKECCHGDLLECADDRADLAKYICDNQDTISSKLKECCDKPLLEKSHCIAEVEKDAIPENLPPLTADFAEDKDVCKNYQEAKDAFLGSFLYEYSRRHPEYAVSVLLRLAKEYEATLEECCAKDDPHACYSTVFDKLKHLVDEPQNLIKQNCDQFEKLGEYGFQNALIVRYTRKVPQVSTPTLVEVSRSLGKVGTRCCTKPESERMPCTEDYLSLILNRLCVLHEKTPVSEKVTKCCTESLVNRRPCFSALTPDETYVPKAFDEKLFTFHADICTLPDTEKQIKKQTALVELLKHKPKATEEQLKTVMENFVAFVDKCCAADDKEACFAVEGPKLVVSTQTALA

Binder	ELISA (absorbance units) (absorbance units) [1]	ELISA (absorbance units) (absorbance units) [2]	ELISA (absorbance units) (absorbance units) [3]	ELISA (absorbance units) (absorbance units) [4]	ELISA (absorbance units) (absorbance units) [5]	ELISA (absorbance units) (absorbance units) [6]
CSGLYPWDYFMCS (disulfide 1-12 (inferred)) [phagemid CS1-29p]	0.127	0.147	0.141	0.125	0.136	0.148
CSFFYSLCYCWCS (disulfide (positions not given here); also: disulfide cyclised, pairing of the four Cys not given here) [phagemid CS1-31p]	0.109	0.114	0.112	0.116	0.118	0.125
CSFRYQWDMFRCS (disulfide 1-12 (inferred)) [phagemid CS1-11p]	0.268	0.278	0.304	0.252	0.258	0.242
CSFRYLWDQDRCS (disulfide 1-12 (inferred)) [phagemid CS1-6p]	0.254	0.27	0.275	0.173	0.172	0.203
CSGLYPWDMFRCS (disulfide 1-12 (inferred)) [phagemid CS1-9p]	0.216	0.22	0.221	0.209	0.204	0.213
CSLFYLWDQDRCS (disulfide 1-12 (inferred)) [phagemid CS1-2p]	0.264	0.277	0.327	0.188	0.199	0.228
